Literature values, collected in paper PMC2225448.

How the values were obtained:
[1] = target: EGFR pY1069 pY1069 (Homo sapiens) (UniProt P00533)
[2] = target: EGFR pY1069 (Homo sapiens) (UniProt P00533)
ErbB2 (Homo sapiens) = ErbB2 (Homo sapiens) (UniProt P04626)

Sequence of Grb7 (Q14451 whole entry): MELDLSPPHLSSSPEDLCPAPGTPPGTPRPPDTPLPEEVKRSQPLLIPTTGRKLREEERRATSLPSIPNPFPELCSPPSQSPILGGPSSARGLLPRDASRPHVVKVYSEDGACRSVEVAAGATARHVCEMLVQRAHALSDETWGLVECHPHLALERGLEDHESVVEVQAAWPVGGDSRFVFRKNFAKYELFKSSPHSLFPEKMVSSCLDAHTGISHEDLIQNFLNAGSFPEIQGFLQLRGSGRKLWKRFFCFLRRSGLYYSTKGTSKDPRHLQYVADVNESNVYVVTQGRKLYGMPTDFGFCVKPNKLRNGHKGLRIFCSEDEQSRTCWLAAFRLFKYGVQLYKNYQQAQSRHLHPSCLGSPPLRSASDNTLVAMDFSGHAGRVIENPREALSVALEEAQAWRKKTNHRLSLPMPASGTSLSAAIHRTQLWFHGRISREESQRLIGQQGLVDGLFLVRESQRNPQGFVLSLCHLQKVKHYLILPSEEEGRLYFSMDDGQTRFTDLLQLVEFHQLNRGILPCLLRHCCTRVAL

**Q.** Which Kd [1] does the source give for Cbl (from UniProt P22681) here?
**A.** Its Kd is 400 nM.

**Q.** What about the Kd [2] of the same substance?
**A.** Its Kd is 400 nM.

**Q.** With Grb7 (from UniProt Q14451) as the substance, how does the Kd (ErbB2 (Homo sapiens)) read?
**A.** The Kd was 2300 nM.
